Measured values published in patent publication US20220251215A1 (Regeneron, published 2022).
Numbering of substitutions follows the chain as printed.

B1: mAb28042P (antibody, human IgG4 S228P, kappa, V domains shown)
VH: QLQLQESDPGLVKPSETLSLTCTVSGDSIRNSNYYWGWIRQPPGKGLEWIGSIYFSGRTYFNPSLKSRVTIPVDMSKNQFSLMLNSVTATDTAVYYCARHGGITAAGGFFDYWGQGTLVTVSS
VL: DIQMTQSPSSLSASVGDRVTITCQASQDISNYLNWYQQKPGKAPNVLIYDASNLETGVPSRFSGSGSGTDFTFTISSLQPEDFATYYCQQNDNLPLTFGGGTKVEIKR
B2: mAb28037P2 (antibody, human IgG4 S228P, kappa, V domains shown)
VH: QVQLQESGPGLVKPSETLSLTCTVSGDSISVYYWTWIRQPPGKGLEWIGYVHYTGYTNYNPSLKSRVTMSVDTAKKQISLKVRSVTAADTAVYYCARTIPAAAHYYHGTDVWGPGTTVTVSS
VL: DIQMTQSPSSLSASVGDRVTITCQANQDIRKYLNWYQQKSGKAPTLLIYEASNLETGAPSTFSGSGSGTEFTFTISSLRPEDIATYYCQQYESLPLTFGGGTKVEIKR
B3: mAb24959N (antibody, human IgG4 S228P, kappa, V domains shown)
VH: QLQLLESGPGLVKPSETLSLICTVSGGSIRGSSYYWGWIRQPPEKGLEWIGSIYSSGSTYYNPSLKSRVTISADTSKNQFSLKLSSVTAADTAVYYCARHGGITAVQLEFDPWGQGTLVTVSS
VL: DIQMTQSPSSLSASVGDRVTITCQASQDISNYLKWYQQKPGKAPKILIHDASNLEIGVPSRFSGSGAGTDFIFTISSLQPEDIGTYYCQQYDNLPITFGQGTRLEIKR
B4: mAb29814P (antibody, human IgG4 S228P, kappa, V domains shown)
VH: QVQLVESGGGVVQPGRSLRLSCVASGFTFSSYGMHWVRQAPGKGLEWVAVIWYVGSNKYYGDSVKGRFTISRDNSKNTLYLQMNSLRAEDTAVYYCARDLIADRPGYYYNGMDVWGQGTTVTVSS
VL: EIVMTQSPVTLFVSPGERATLSCRASQSVNTNLAWYQQQPGQAPRLLIHGASTRPTGVPARFSGSGSGTEFTLIISSLQSEDFAVYYCQQYNNWPPWTFGQGTKVEIKR
B5: mAb28105P (antibody, human IgG4 S228P, kappa, V domains shown)
VH: EVQLVESGGGVVQPGGSLRLSCEASGFIFDDYAMHWVRQAPGKGLEWVSLISGDGDIIYYADSVKGRFTISRDNSKNSLYLQMNSLIIEDTALYYCAKDWVFGVVMTHYWYFGLDVWGQGTTVTVSS
VL: DIQMTQSPSSLSASEGDRVTITCRASQSISTYLNWYQQKPGKAPKLLIYGASSLQSGVPSRFSGSGSGTDFTLTISSLQPEDFATYYCQQSYSTPPITFGQGTKVEIKR
B6: mAb28128P (antibody, human IgG4 S228P, kappa, V domains shown)
VH: EVQLVESGGGVVQPGGSLRLSCAASGFIFDDYAMHWVRQVPGKGLEWISLSSGGGGGTYYADPVKGRFTISRDNSKNSLHLQMNSLRAEDTASYYCAKDMVFGVVTPDFFFAMDVWGQGTTVTVSS
VL: B5 VL with E15V, S56R, S91T, K104R, V105L
B7: mAb28035P (antibody, human IgG4 S228P, kappa, V domains shown)
VH: QVQLVQSGAEVMKPGASVKVSCKVSGYTLSDLSMHWVRQAPGKGLEWMGGFDFEHGKTIYAQKFQGRVTMTEDTSTDTTYMELSSLRSEDTAVYYCAKVPNWGFFDYWGQGTLVTVSS
VL: not shown

Each binder was assayed against T1, HLA-A2 on T2 cells pulsed with NY-ESO-1:157-165, wt peptide (C165) (human) (assay: flow cytometry, peptide-pulsed T2 cells).
T1 construct: also called T2 Pulsed NY-ESO-1_157-165

Point of comparison: B5, EC50 1800 pM. Against it:
- B1 — within 1.5-fold, 1600 pM
- B2 — 2.3-fold lower, 780 pM
- B3 — 1.6-fold lower, 1100 pM
- B4 — 1.6-fold lower, 1100 pM
- B6 — 5.6-fold lower, 320 pM
- B7 — 1.5-fold higher, 2700 pM

Each binder was assayed against T1, HLA-A2 on T2 cells pulsed with … (assay: flow cytometry, 10 ug/ml, pulsed T2 cells).

Point of comparison: B4, “ratio of MFI, pulsed to unpulsed” value 124 ratio. Against it:
- B1 — higher, 134 ratio
- B2 — higher, 137 ratio
- B3 — higher, 131 ratio
- B5 — higher, 126 ratio
- B6 — higher, 138 ratio
- B7 — higher, 131 ratio

These binders were tested against HLA-A2 on T2 cells pulsed with BCL9L: 1351-1359 peptide (human) (assay: flow cytometry, 10 ug/ml, pulsed T2 cells).

Point of comparison: B7, “ratio of MFI, pulsed to unpulsed” value 170 ratio. Against it:
- B1 — lower, 46.5 ratio
- B2 — lower, 52.3 ratio
- B3 — lower, 80.7 ratio
- B4 — lower, 150 ratio
- B6 — lower, 3 ratio

The binders below were run against HLA-A2 on T2 cells pulsed with GRID1: 7-15 peptide (human) (assay: flow cytometry, 10 ug/ml, pulsed T2 cells).

Point of comparison: B7, “ratio of MFI, pulsed to unpulsed” value 1.4 ratio. Against it:
- B1 — higher, 17.4 ratio
- B2 — lower, 0.7 ratio
- B3 — higher, 3.2 ratio
- B4 — higher, 1.6 ratio
- B5 — lower, 0.7 ratio
- B6 — higher, 1.6 ratio

The binders below were run against HLA-A2 on T2 cells pulsed with EARS2: 306-314 peptide (human) (assay: flow cytometry, 10 ug/ml, pulsed T2 cells).

Point of comparison: B3, “ratio of MFI, pulsed to unpulsed” value 0.6 ratio. Against it:
- B1 — the same, 0.6 ratio
- B2 — the same, 0.6 ratio
- B4 — the same, 0.6 ratio
- B5 — the same, 0.6 ratio
- B6 — the same, 0.6 ratio
- B7 — the same, 0.6 ratio

The binders below were run against HLA-A2 on T2 cells pulsed with ZDHHC1 (376-384) peptide (human) (assay: flow cytometry, 10 ug/ml, pulsed T2 cells).

Point of comparison: B5, “ratio of MFI, pulsed to unpulsed” value 0.5 ratio. Against it:
- B1 — the same, 0.5 ratio
- B2 — the same, 0.5 ratio
- B3 — lower, 0.4 ratio
- B4 — higher, 0.6 ratio
- B6 — higher, 1.6 ratio
- B7 — higher, 0.9 ratio

What follows are binders tested against HLA-A2 on T2 cells pulsed with ITCH (807-815) peptide (human) (assay: flow cytometry, 10 ug/ml, pulsed T2 cells).

Point of comparison: B1, “ratio of MFI, pulsed to unpulsed” value 0.7 ratio. Against it:
- B2 — higher, 1.3 ratio
- B3 — higher, 0.9 ratio
- B4 — higher, 0.9 ratio
- B5 — higher, 1 ratio
- B6 — higher, 1 ratio
- B7 — higher, 1 ratio

The binders below were run against HLA-A2 on T2 cells pulsed with MAGEH1: 90-98 peptide (human) (assay: flow cytometry, 10 ug/ml, pulsed T2 cells).

Point of comparison: B5, “ratio of MFI, pulsed to unpulsed” value 0.5 ratio. Against it:
- B1 — lower, 0.4 ratio
- B2 — lower, 0.4 ratio
- B3 — lower, 0.4 ratio
- B4 — lower, 0.4 ratio
- B6 — the same, 0.5 ratio
- B7 — lower, 0.4 ratio

Each binder was assayed against HLA-A2 on T2 cells pulsed with FBXL22: 4-12 peptide (human) (assay: flow cytometry, 10 ug/ml, pulsed T2 cells).

Point of comparison: B6, “ratio of MFI, pulsed to unpulsed” value 1.3 ratio. Against it:
- B1 — lower, 0.5 ratio
- B2 — lower, 0.5 ratio
- B3 — lower, 0.5 ratio
- B4 — lower, 0.5 ratio
- B5 — lower, 0.5 ratio
- B7 — lower, 0.5 ratio

These binders were tested against HLA-A2 on T2 cells pulsed with URB1: 1853-1861 peptide (human) (assay: flow cytometry, 10 ug/ml, pulsed T2 cells).

Point of comparison: B7, “ratio of MFI, pulsed to unpulsed” value 0.5 ratio. Against it:
- B1 — the same, 0.5 ratio
- B2 — higher, 0.6 ratio
- B3 — higher, 0.6 ratio
- B4 — higher, 7.9 ratio
- B5 — higher, 0.6 ratio
- B6 — higher, 0.6 ratio

These binders were tested against T2, monomeric HLA-A2:NY-ESO-1(156-165) (V at position 165) peptide complex, 2906 (assay: SPR, 25 C, antibody captured, monomeric complex injected;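 note: antibody held on sensor chip via immobilized anti-human or anti-mouse Fc antibody, rate constants derived by fitting sensorgrams to a 1:1 binding model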).
T2 construct: also called soluble HLA-A2:NY-ESO-1 peptide complex

Point of comparison: B7, Kd 342 pM. Against it:
- B1 — 1.6-fold higher, 550 pM
- B2 — 2-fold higher, 692 pM
- B3 — 3.6-fold higher, 1230 pM
- B5 — within 1.5-fold, 386 pM
- B6 — 2.1-fold lower, 160 pM

Point of comparison: B7, koff 0.000152 s⁻¹. Against it:
- B1 — within 1.5-fold, 0.000199 s⁻¹
- B2 — 2-fold higher, 0.000307 s⁻¹
- B3 — 3.4-fold higher, 0.000517 s⁻¹
- B6 — within 1.5-fold, 0.000185 s⁻¹

Point of comparison: B1, kon 362000 M⁻¹ s⁻¹. Against it:
- B2 — within 1.5-fold, 443000 M⁻¹ s⁻¹
- B3 — within 1.5-fold, 421000 M⁻¹ s⁻¹
- B6 — 3.2-fold higher, 1.16e+06 M⁻¹ s⁻¹
- B7 — within 1.5-fold, 445000 M⁻¹ s⁻¹

Point of comparison: B7, t½ 75.9 min. Against it:
- B1 — within 1.5-fold, 58 min
- B2 — 2-fold lower, 37.7 min
- B3 — 3.4-fold lower, 22.3 min
- B5 — within 1.5-fold, 62.8 min
- B6 — within 1.5-fold, 62.5 min

What follows are binders tested against T2, monomeric HLA-A2:NY-ESO-1(156-165) (V …) (assay: SPR, 37 C, antibody captured, monomeric complex injected).

Point of comparison: B7, Kd 378 pM. Against it:
- B1 — 5.5-fold higher, 2090 pM
- B2 — 7.3-fold higher, 2760 pM
- B5 — 1.6-fold higher, 586 pM
- B6 — within 1.5-fold, 293 pM

Point of comparison: B6, koff 0.000441 s⁻¹. Against it:
- B1 — 2.7-fold higher, 0.00117 s⁻¹
- B2 — 4.1-fold higher, 0.00183 s⁻¹
- B7 — 1.7-fold lower, 0.000253 s⁻¹

Point of comparison: B1, kon 561000 M⁻¹ s⁻¹. Against it:
- B2 — within 1.5-fold, 664000 M⁻¹ s⁻¹
- B6 — 2.7-fold higher, 1.5e+06 M⁻¹ s⁻¹
- B7 — within 1.5-fold, 669000 M⁻¹ s⁻¹

Point of comparison: B6, t½ 26.2 min. Against it:
- B1 — 2.6-fold lower, 9.9 min
- B2 — 4.2-fold lower, 6.3 min
- B5 — within 1.5-fold, 21.3 min
- B7 — 1.7-fold higher, 45.7 min
